According to patent US20120058906A1 (published 2012):

T1: rHuman Erythropoietin R/Fc Chimera, CF (R&D Systems Cat#963-ER) (human, UniProt P19235 25-250)
T1 construct: Bought Fc chimera; also called EPO R/Fc; erythropoietin receptor; Fc part of the bought chimera not given
T1 sequence: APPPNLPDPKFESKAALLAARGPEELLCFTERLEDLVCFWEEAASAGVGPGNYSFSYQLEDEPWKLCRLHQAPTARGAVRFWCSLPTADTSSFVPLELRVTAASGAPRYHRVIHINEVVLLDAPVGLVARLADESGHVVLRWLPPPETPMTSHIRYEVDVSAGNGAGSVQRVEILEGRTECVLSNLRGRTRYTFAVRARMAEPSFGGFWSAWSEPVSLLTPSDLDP

T2: rHuman Erythropoietin R/Fc Chimera, CF (R&D Systems Cat#963-ER) (human, UniProt P19235 25-250)
T2 construct: Bought Fc chimera; also called EPO R/Fc; Epo R; not shown: Fc of the bought chimera
T2 sequence: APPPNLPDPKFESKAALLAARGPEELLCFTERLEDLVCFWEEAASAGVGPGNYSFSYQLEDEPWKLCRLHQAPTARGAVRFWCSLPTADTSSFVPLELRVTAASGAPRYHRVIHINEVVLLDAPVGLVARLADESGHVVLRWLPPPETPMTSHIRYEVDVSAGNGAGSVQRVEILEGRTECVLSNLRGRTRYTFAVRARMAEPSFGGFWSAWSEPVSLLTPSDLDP


Tests used:
[1] = target: T3, rHuman EGF R/Fc Chimera, CF (R&D Systems Cat#344-ER) (human, UniProt P00533 25-645); assay: ECL (MSD Multi-Spot) binding, antigen spotted on plate; Fab 50 nM
T3 construct: Bought Fc chimera; also called epidermal growth factor receptor; Fc part of the bought chimera not given

[2] = target: T4, rHuman ErbB2/Fc Chimera, CF (R&D Systems Cat#1129-ER) (human, UniProt P04626 23-652); assay: as above
T4 construct: Bought Fc chimera; also called human epidermal growth factor 2 receptor; HER2/neu; Fc part of the bought chimera not given

[3] = target: T5, rHuman CD44/Fc Chimera, CF (R&D Systems Cat#3660-CD) (human, UniProt P16070 21-220); assay: as above
T5 construct: Bought Fc chimera; Fc part of the bought chimera not given

[4] = target: T1, rHuman Erythropoietin R/Fc Chimera, CF …; assay: as above
[5] = target: T6, Recombinant Human DLL4 (R&D Systems Cat#1506-D4/CF) (human, UniProt Q9NR61 27-524); assay: as above
T6 construct: Bought recombinant protein; also called delta-like protein 4

[6] = target: T7, rHuman Notch-1/Fc Chimera, CF (R&D Systems Cat#3647-TK) (human, UniProt P46531 19-526); assay: as above
T7 construct: Bought Fc chimera; Fc part of the bought chimera not given

[7] = target: T8, rHuman P-Cadherin/Fc Chimera, CF (R&D Systems Cat#861-PC) (human, UniProt P22223 108-654); assay: as above
T8 construct: Bought Fc chimera; Fc part of the bought chimera not given

[8] = target: T9, rHuman HGF R/c-MET/Fc Chimera, CF (R&D Systems Cat#358-MT/CF) (human, UniProt P08581 25-932); assay: as above
T9 construct: Bought Fc chimera; also called HGF R/Fc; hepatocyte growth factor receptor; Fc part of the bought chimera not given

[9] = target: T10, rHuman IGF-1 sR, CF (R&D Systems Cat#391-GR) (human, UniProt P08069 31-932); assay: as above
T10 construct: Bought soluble receptor; also called insulin-like growth factor-1 soluble receptor; IGF-R1

[10] = target: T2, rHuman Erythropoietin R/Fc Chimera, CF …; assay: ECL (MSD multi-spot), antigen on plate, Fab 50 nM
[11] = target: T11, rHuman P-Cadherin/Fc Chimera, CF (R&D Systems Cat#861-PC) (human, UniProt P22223 108-654); assay: ECL (MSD multi-spot), antigen on plate, Fab 50 nM
T11 construct: Bought Fc chimera; also called CDH3; not shown: Fc of the bought chimera

[12] = target: T12, rHuman IGF-1 sR (insulin-like growth factor-1 soluble receptor), CF (R&D Systems Cat#391-GR) (human, UniProt P08069 31-932); assay: ECL (MSD multi-spot), antigen on plate, Fab 50 nM
T12 construct: Bought soluble receptor; also called IGF-R1

[13] = target: T2, rHuman Erythropoietin R/Fc Chimera, CF …; assay: ECL (MSD multi-spot), antigen on plate, Fab 0.4 nM
[14] = target: T11, rHuman P-Cadherin/Fc Chimera, CF (R&D …); assay: ECL (MSD multi-spot), antigen on plate, Fab 0.4 nM
[15] = target: T13, rHuman CD44/Fc Chimera, CF (R&D Systems Cat#3660-CD) (human, UniProt P16070 21-220); assay: ECL (MSD multi-spot), antigen on plate, Fab 0.4 nM
T13 construct: Bought Fc chimera; not shown: Fc of the bought chimera

[16] = target: T14, Recombinant Human DLL4 (R&D Systems Cat#1506-D4/CF) (human, UniProt Q9NR61 27-524); assay: ECL (MSD multi-spot), antigen on plate, Fab 0.4 nM
T14 construct: Bought recombinant protein; also called delta-like protein 4

[17] = target: T15, rHuman ErbB2/Fc Chimera, CF (R&D Systems Cat#1129-ER) (human, UniProt P04626 23-652); assay: ECL (MSD multi-spot), antigen on plate, Fab 0.4 nM
T15 construct: Bought Fc chimera; also called HER2/neu; not shown: Fc of the bought chimera

[18] = target: T16, rHuman EGF R/Fc Chimera, CF (R&D Systems Cat#344-ER) (human, UniProt P00533 25-645); assay: ECL (MSD multi-spot), antigen on plate, Fab 0.4 nM
T16 construct: Bought Fc chimera; also called ErbB-1; not shown: Fc of the bought chimera

[19] = target: T17, rHuman Notch-1/Fc Chimera, CF (R&D Systems Cat#3647-TK) (human, UniProt P46531 19-526); assay: ECL (MSD multi-spot), antigen on plate, Fab 0.4 nM
T17 construct: Bought Fc chimera; not shown: Fc of the bought chimera
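Note: blank spot per well as comparator with Hit at signal to blank ratio of 4 or more.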

| ECL signal [1] | ECL signal [2] | ECL signal [3] | ECL signal [4] | ECL signal [5] | ECL signal [6] | ECL signal [7] | ECL signal [8] | ECL signal [9] | ECL signal [10] | ECL signal [11] | ECL signal [12] | ECL signal [13] | ECL signal [14] | ECL signal [15] | ECL signal [16] | ECL signal [17] | ECL signal [18] | ECL signal [19] | Binder |
| --- | --- | --- | --- | --- | --- | --- | --- | --- | --- | --- | --- | --- | --- | --- | --- | --- | --- | --- | --- |
| 523 | 589 | 433 | 631 | 207000 | 475 | 626 | 325 | 460 | – | – | – | – | – | – | – | – | – | – | Fab VH1-46_IGHD6-6*01_IGHJ1*01_S102A_S103P_S104F_H111Y & L6_IGKJ1*01 (Fab, V domains shown, Fab made in E. coli; The heavy chain also carries the CH1 with Flag and His tags of Plasmid A, and the light chain the kappa constant region of Plasmid C) VH: QVQLVQSGAEVKKPGASVKVSCKASGYTFTSYYMHWVRQAPGQGLEWMGIINPSGGSTSYAQKFQGRVTMTRDTSTSTVYMELSSLRSEDTAVYYCAREEYAPFSAEYFQYWGQGTLVTVSS VL: not shown |
| – | – | – | – | – | – | – | – | – | 527 ECL signal | 431 ECL signal | 355 ECL signal | 147 ECL signal | 191 ECL signal | 257 ECL signal | 1140 ECL signal | 275 ECL signal | 246 ECL signal | 248 ECL signal | Fab VH1-46_IGHD6-6*01_IGHJ1*01_S102A_S103P_S104F & L6_IGKJ1*01_S28P (Fab, V domains shown, Fab) VH: QVQLVQSGAEVKKPGASVKVSCKASGYTFTSYYMHWVRQAPGQGLEWMGIINPSGGSTSYAQKFQGRVTMTRDTSTSTVYMELSSLRSEDTAVYYCAREEYAPFSAEYFQHWGQGTLVTVSS VL: EIVLTQSPATLSLSPGERATLSCRASQPVSSYLAWYQQKPGQAPRLLIYDASNRATGIPARFSGSGSGTDFTLTISSLEPEDFAVYYCQQRSNWPPWTFGQGTKVEIKR |
